The values below come from patent US20030177526A1 (PLANT HEALTH CARE, published 2003).

Sequences and labels used below:
B1: LexA alone (empty bait vector pVJL11) (other)
chain: MKALTARQQEVFDLIRDHISQTGMPPTRAEIAQRLGFRSPNAAEEHLKALARKGVIEIVSGASRGIRLLQEEEEGLPLVGRVAAGEPLLAQQHIEGHYQVDPSLFKPNADFLLRVSGMSMKDIGIMDGDLLAVHKTQDVRNGQVVVARIDDEVTVKRLKKQGNKVELLPENSEFKPIVVDLRQQSFTIEGLAVGVIRNGDWL
notes: Control

In experiment [1] the target is T1, GAL4 activation domain-AtHrBP1p fusion (longest 1 kb cDNA insert in pGAD 10) (yeast; Arabidopsis thaliana, UniProt Q9LW57 1-284).
T1 construct: Yeast two-hybrid prey; also called AtHrBP1-AD fusion prey
T1 sequence: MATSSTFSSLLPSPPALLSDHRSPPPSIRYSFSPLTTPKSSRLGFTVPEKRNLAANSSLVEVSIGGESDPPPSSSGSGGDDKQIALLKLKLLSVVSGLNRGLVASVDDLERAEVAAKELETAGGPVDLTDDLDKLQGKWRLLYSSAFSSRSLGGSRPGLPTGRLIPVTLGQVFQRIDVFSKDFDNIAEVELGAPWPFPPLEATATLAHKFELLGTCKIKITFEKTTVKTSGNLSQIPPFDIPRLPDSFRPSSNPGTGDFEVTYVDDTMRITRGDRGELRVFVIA
The experiment in a line: yeast two-hybrid, lacZ and HIS3 reporters.

The target of experiment [2] is T2, GAL4 activation domain-harpin fusion (hrpN in prey vector pGAD GH) (yeast; Erwinia amylovora, UniProt Q01099 1-403).
T2 construct: range 1-403; also called hrpN-pGAD GH
T2 sequence: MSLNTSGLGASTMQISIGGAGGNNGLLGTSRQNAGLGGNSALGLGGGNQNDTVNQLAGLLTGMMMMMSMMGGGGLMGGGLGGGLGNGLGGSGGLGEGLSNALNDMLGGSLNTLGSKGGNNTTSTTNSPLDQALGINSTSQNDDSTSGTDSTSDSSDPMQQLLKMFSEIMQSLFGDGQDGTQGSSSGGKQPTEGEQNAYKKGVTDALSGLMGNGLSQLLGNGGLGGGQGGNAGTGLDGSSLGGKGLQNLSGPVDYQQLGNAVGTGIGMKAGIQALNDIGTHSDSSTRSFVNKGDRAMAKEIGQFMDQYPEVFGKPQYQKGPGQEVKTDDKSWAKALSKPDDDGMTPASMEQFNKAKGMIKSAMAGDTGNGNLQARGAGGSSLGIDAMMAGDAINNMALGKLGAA
The experiment in a line: yeast two-hybrid, lacZ and HIS3 reporters.

Experiment [3] deals with T3, LexA-harpin fusion (HrpN of Erwinia amylovora in bait vector pVJL11) (Erwinia amylovora, UniProt Q01099 1-403).
T3 construct: range 1-403; also called HrpN-pVJL11; lexA-harpin fusion protein; not shown: prokaryotic LexA protein (DNA-BD encoded in bait vector pVJL11)
T3 sequence: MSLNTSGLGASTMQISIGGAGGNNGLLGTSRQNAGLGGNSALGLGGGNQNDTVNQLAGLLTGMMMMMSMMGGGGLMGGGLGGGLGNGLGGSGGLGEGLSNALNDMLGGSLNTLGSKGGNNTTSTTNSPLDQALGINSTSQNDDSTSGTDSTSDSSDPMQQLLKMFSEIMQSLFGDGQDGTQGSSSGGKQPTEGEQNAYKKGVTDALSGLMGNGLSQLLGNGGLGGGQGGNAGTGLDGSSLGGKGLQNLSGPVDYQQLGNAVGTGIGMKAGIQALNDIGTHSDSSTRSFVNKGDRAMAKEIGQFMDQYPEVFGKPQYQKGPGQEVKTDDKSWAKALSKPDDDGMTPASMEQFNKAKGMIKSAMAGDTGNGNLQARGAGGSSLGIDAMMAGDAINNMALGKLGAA
Kind of experiment: yeast two-hybrid, lacZ and HIS3 reporters.

Experiment [4] concerns the target T4, LexA-AtHrBP1p fusion (AtHrBP1 in bait vector pVJL11) (Arabidopsis thaliana, UniProt Q9LW57 1-284).
T4 construct: Yeast two-hybrid bait, opposite orientation; also called AtHrBP1-pVJL11; AtHrBP1p fused with the DNA-BD; not shown: prokaryotic LexA protein (DNA-BD encoded in bait vector pVJL11)
T4 sequence: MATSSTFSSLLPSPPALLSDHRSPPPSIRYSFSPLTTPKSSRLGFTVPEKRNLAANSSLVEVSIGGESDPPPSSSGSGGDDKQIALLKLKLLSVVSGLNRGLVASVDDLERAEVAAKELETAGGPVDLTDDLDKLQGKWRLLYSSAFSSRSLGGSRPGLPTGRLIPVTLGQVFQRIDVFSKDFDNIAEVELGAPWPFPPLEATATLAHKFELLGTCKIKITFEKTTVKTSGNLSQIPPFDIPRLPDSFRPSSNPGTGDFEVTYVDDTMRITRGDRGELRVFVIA
Kind of experiment: yeast two-hybrid, lacZ and HIS3 reporters.

Experiment [5] has as its target B1. Kind of experiment: yeast two-hybrid, lacZ and HIS3 reporters.
Experiment [6] deals with T5, LexA fused to harpin 210-403 amino acids (Erwinia amylovora, UniProt Q01099 210-403).
T5 construct: range 210-403; not shown: prokaryotic LexA protein (bait vector)
T5 sequence: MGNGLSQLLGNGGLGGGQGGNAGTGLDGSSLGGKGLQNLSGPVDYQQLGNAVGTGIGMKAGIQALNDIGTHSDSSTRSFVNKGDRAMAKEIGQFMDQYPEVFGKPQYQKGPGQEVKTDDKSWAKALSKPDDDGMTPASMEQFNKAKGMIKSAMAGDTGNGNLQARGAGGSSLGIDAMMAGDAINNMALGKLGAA
The experiment in a line: yeast two-hybrid, lacZ and HIS3 reporters.

For experiment [7], the target named is T6, LexA fused to harpin 137-180 amino acids (Erwinia amylovora, UniProt Q01099 137-180).
T6 construct: also called harpin fragment that contains the second HR domain; not shown: prokaryotic LexA protein (bait vector)
T6 chain (looked up): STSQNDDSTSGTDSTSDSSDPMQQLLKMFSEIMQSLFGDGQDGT
Kind of experiment: yeast two-hybrid, harpin fragment as bait.

Experiment [8] has as its target T3, LexA-harpin fusion (HrpN of Erwinia …). The experiment in a line: yeast two-hybrid, harpin as bait.

As to B1, the binding result in experiment [1] and in experiment [2] was “no binding” in each case.

B2: GAL4 activation domain alone (empty prey vector pGAD GH) (other)
chain: ANFNQSGNIADSSLSFTFTNSSNGPNLITTQTNSQALSQPIASSNVHDNFMNNEITASKIDDGNNSKPLSPGWTDQTAYNAFGITTGMFNTTTMDDVYNYLFDDEDTPPNPKKE
notes: Control
On to B2, for which the binding result in experiment [3] and in experiment [4] was “no binding” in each case.

B3: GAL4 activation domain-rice HrBP1p (R6p) fusion (receptor)
chain: VAALKVKLLSAVSGLNRGLAGSQEDLDRADAAARELEAAAGGGPVDLERDVDKLQGRWRLVYSSAFSSRTLGGSRPGPPTGRLLPITLGQVFQRIDVVSKDFDNIVDVELGAPWPLPPVELTATLAHKFEIIGTSSIKITFDKTTVKTKGNLSQLPPLEVPRIPDNLRPPSNTGSGEFEVTYLDGDTRITRGDRGELRVFVIS
notes: Partial cDNA clone from a yeast two-hybrid screen with harpin as bait; not full length
As to B3, the binding result in experiment [5] is “no binding”; in experiment [6] it was “no binding”; in experiment [7] it was “binds”; in experiment [8], “binds”.
